In series [1] the target is T1, UL9-COOH (C-terminal DNA-binding fragment of UL9) (Herpes simplex virus 1, UniProt P10193 P10193:535-851). As to the kind of experiment: EMSA; flanks have little effect on off-rate. The settings on record: tags: GST fusion from pGEX-2T, thrombin-cleaved; E. coli JM109; bacterial extracts also used; label: 32P. A general note: A gel shift assay detects complexes by their altered migration in electrophoresis.

Series [2] deals with T1, UL9-COOH (C-terminal DNA-binding …). The series can be described thus: EMSA; flanks have little effect on off-rate; disrupted by distamycin A and doxorubicin. The note with it: tags: GST fusion from pGEX-2T, thrombin-cleaved; E. coli JM109; bacterial extracts also used; label: 32P.
Series [3] has the same target. As to the kind of experiment: competition; unlabelled competitor in dissociation assay. The note with it: tags: GST fusion from pGEX-2T, thrombin-cleaved; E. coli JM109; bacterial extracts also used.
Series [4] shares this target. As to the kind of experiment: EMSA; flanks have little effect on off-rate; filter binding same; disrupted by actinomycin D. The settings on record: tags: GST fusion from pGEX-2T, thrombin-cleaved; E. coli JM109; bacterial extracts also used; label: 32P.
Series [5] shares this target. The series can be described thus: EMSA; flanks have little effect on off-rate; disrupted by distamycin A. The settings on record: tags: GST fusion from pGEX-2T, thrombin-cleaved; E. coli JM109; bacterial extracts also used; label: 32P.
Series [6] has the same target. As to the kind of experiment: EMSA; flanks have little effect on off-rate; disrupted by doxorubicin. The note with it: tags: GST fusion from pGEX-2T, thrombin-cleaved; E. coli JM109; bacterial extracts also used; label: 32P.
For series [7] the target is unchanged. The series can be described thus: EMSA; flanks have little effect on off-rate; particularly disrupted by doxorubicin. The settings on record: tags: GST fusion from pGEX-2T, thrombin-cleaved; E. coli JM109; bacterial extracts also used; label: 32P.
For series [8] the target is unchanged. As to the kind of experiment: EMSA; flanks have little effect on off-rate; disrupted by actinomycin D and doxorubicin. The settings on record: tags: GST fusion from pGEX-2T, thrombin-cleaved; E. coli JM109; bacterial extracts also used; label: 32P.

T1 sequence (P10193 535-851, one chain of several): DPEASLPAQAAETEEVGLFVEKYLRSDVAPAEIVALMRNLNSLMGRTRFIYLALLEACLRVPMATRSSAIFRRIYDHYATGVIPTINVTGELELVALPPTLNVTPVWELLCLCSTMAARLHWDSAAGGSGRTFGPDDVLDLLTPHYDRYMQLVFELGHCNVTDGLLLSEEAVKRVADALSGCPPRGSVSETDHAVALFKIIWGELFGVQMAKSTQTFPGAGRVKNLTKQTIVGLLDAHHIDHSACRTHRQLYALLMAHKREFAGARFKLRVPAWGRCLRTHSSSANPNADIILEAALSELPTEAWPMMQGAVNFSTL

B1: FIG. 5 oligo SEQ ID NO:610 (dsDNA)
DNA 1: GGACGCACGCGTTCGCACTTGCAGCAGCGG
DNA 2: CCGCTGCTGCAAGTGCGAACGCGTGCGTCC
B1: the binding result in series [1] was “binds”.

B2: UL9 polyT (dsDNA)
DNA 1: GGTTTTTTTCGTTCGCACTTTTTTTTTTGG
DNA 2: CCAAAAAAAAAAGTGCGAACGAAAAAAACC
With B2, in series [2], the binding result is on record as “binds”.

B3: 17 bp UL9 competitor (dsDNA)
DNA 1: GGTCGTTCGCACTTCGC
DNA 2: GCGAAGTGCGAACGACC
For the molecule B3, the binding result in series [3] is “binds”.

B4: UL9 CCCG (dsDNA)
DNA 1: GGCCCGCCCCGTTCGCACTTCCCGCCCCGG
DNA 2: CCGGGGCGGGAAGTGCGAACGGGGCGGGCC
In the case of B4, the binding result in series [4] is on record as “binds”.

B5: UL9 ATAT (dsDNA)
DNA 1: GGATATATACGTTCGCACTTTAATTATTGG
DNA 2: CCAATAATTAAAGTGCGAACGTATATATCC
With B5, the binding result in series [5] was “binds”.

B6: oriEco2 (dsDNA)
DNA 1: GGCGAATTCGACGTTCGCACTTCGTCCCAAT
DNA 2: ATTGGGACGAAGTGCGAACGTCGAATTCGCC
As to B6, the binding result in series [6] was “binds”.

B7: UL9 polyA (dsDNA)
DNA 1: GGAAAAAAACGTTCGCACTTAAAAAAAAGG
DNA 2: CCTTTTTTTTAAGTGCGAACGTTTTTTTCC
For the molecule B7, in series [5], the binding result was “binds”.

B8: oriEco3 (dsDNA)
DNA 1: GGCGAATTCGATCGTTCGCACTTCGTCCCAAT
DNA 2: ATTGGGACGAAGTGCGAACGATCGAATTCGCC
Consider B8, for which the binding result in series [7] is “binds”.

B9: ATori1 (dsDNA)
DNA 1: GCGTATATATCGTTCGCACTTCGTCCCAAT
DNA 2: ATTGGGACGAAGTGCGAACGATATATACGC
In the case of B9, the binding result in series [1] is recorded as “binds”.

B10: UL9 GGGC (dsDNA)
DNA 1: GGCGGGCGCCGTTCGCACTTGGGCGGGCGG
DNA 2: CCGCCCGCCCAAGTGCGAACGGCGCCCGCC
B10: the binding result in series [8] is “binds”.

These data come from US20030124530 (Genelabs Technologies, Inc., published 2003).
